B1: PP1alpha peptide (WNPGGRPITPPRNSA) (peptide)
peptide: WNPGGRPITPPRNSA
notes: leading tryptophan; PxxP-containing peptide derived from the phosphatase PP1 (PP1alpha), C-terminal tail; also called PP1 peptide; source: synthetic peptide (TUCF, custom made)
B2: JunD peptide (WLKPAAAPPPTPLRADGAPSA) (peptide)
peptide: WLKPAAAPPPTPLRADGAPSA

Legend:
[1] = molecular target: T1, Halo-tagged iASPP CTD (625–828) (UniProt Q8WUF5 625-828); assay: pull-down; displacement pull-down: 25 μM JunD or PP1 peptide added to Halo-iASPP CTD on magnetic Halo beads, read by loss of in vitro translated Myc-tagged protein; conditions: both partners purified
T1 construct: iASPP C-terminal domain (CTD) with the SH3 domain, residues 625-828; also called iASPP CTD fused to Halo-Tag; not shown: HaloTag, N-terminal, kept
T1 sequence (looked up): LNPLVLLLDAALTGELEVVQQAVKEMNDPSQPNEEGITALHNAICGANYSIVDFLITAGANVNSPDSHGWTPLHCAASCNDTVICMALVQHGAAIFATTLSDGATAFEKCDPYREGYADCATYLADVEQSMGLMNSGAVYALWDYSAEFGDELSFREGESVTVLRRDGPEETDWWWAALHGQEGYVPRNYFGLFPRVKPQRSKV

[2] = molecular target: T2, ASPP1 CTD (887–1090) (Homo sapiens (Human), UniProt Q96KQ4); assay: ITC
T2 chain: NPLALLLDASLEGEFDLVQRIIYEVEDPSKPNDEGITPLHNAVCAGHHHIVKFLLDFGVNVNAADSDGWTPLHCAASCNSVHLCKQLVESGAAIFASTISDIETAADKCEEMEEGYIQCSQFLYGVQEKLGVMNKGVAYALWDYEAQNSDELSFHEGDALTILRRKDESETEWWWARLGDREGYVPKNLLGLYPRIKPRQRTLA

[3] = molecular target: T3, ASPP1 CTD (887–1090) (Homo sapiens (Human), UniProt Q96KQ4); assay: ITC
T3 chain: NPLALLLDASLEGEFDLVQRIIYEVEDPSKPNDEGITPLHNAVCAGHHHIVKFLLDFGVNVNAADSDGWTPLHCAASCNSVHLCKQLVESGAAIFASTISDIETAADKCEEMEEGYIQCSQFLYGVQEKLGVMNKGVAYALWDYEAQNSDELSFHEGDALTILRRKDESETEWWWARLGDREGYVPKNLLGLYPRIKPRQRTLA

[4] = molecular target: T4, iASPP CTD (625–828) (UniProt Q8WUF5 625-828); assay: ITC
T4 chain: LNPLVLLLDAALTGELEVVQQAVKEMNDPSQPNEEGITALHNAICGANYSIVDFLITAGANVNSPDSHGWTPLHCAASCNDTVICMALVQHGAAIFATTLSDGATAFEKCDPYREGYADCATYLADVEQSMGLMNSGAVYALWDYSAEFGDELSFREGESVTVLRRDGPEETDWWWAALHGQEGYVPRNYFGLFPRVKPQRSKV

Binder	binding result [1]	binding result [2]	binding result [3]	Kd [4] [µM]
B1	binds	–	–	–
B2	–	no binding	no binding	4.58

Reference: PMC9597577, “Mutant Ras and inflammation-driven skin tumorigenesis is suppressed via a JNK-iASPP-AP1 axis” (Cell Reports, 2022)
